The target of assay [1] is Mimivirus cyclophilin (mimicyp), full length wild type (Mimivirus) (UniProt Q5UP71). In words: crystal structure.
Assay [2] has the same target. Briefly: SEC + other: NMR.

In general, stoichiometry N refers to a count of units in the complex or per binding partner. A word on the Kd: it is the concentration at which binding is half-saturated. For “Mimivirus cyclophilin (mimicyp), full length wild type (from UniProt Q5UP71 1-234) (natural protein)”, the stoichiometry N in assay [1] was determined as 3. Besides, the Kd in assay [2] was 50 to 500 µM.

These data come from PMC2884007.
